Measured values from the supplement of paper PMC9170038.

system: MS2 coat protein; assay: apparent KD of MS2 coat protein, switch ON state; designed switch direction (-1 OFF switch, 1 ON switch): 1; higher = weaker reporter binding; conditions: FMN input: 0 or 200 uM; Eterna round: R93 (includes R88 designs)
Procedure, shortened: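 Apparent KD stands for the median, per design, of fits to normalised cluster binding curves. The curves came from titrating on-chip-transcribed RNA switches on Illumina sequencing clusters with SNAP-549-labelled MS2 coat protein, twofold from 0.7 or 1.5 nM to 3 µM. Buffer was 100 mM Tris-HCl pH 7.5, 80 mM KCl, 4 mM MgCl2, without or with constant ligand.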

Point of comparison: “AAAUAGUGCACUAAGGAUAUGUCGCAUGACACAUGAGGAUCACCCAUGUGGUAACACAGAGGGUGGCAGAAGGUAGUGUGCAAAC [Mod 2 of Pariah 6 (Round1) by Hyphema]”, “apparent KD of MS2 coat protein” value 35.7 nM. Against it:
- AACAUACAUGAGGAUCACCCAUGUUCCGGCAGGUCAGGAUAUAUAUCGAAAGAGUUAUAAAUAGAAGGGACAUAAA [JR_SS001_Sub009] — within 1.5-fold, 49.6 nM
- GAAAAACAUGAGGAUCACCCAUGUGAUAAUAUGGGAGGAUAUACAAAGACGAAAGUCAAAGUAGAAGGCCUAAAAG [Garnet 35] — within 1.5-fold, 40.5 nM
- GAGAUACAUGAGGAUCACCCAUGUUGAAAUAUGGGAGGAUAUACAAGGUCGAAAGAUAAGGUAGAAGGCCUAAAAG [LROPPY Same State 1 - v03_deltaG=1.1] — within 1.5-fold, 39.1 nM
- AGAAAGAAUAGAGAGGAUAUCUAUAAGAAAACAUGAGGAUCACCCAUGUAAAAGAAAAGAAAAUGGGAGAAGGCUCAUAAGAAAG [JL Skelter Mod 6 In the Red] — 5.2-fold higher, 186 nM
- AAGAAACAUGAGGAUCACCCAUGUAAGAUAAACACAGGAUAUGCGAAAAGAAACAAAGAAGCAGAAGGGUGAAGAA [Ex5 sub 1] — 2.1-fold lower, 17 nM
- AGAAAACAUGAGGAUCACCCAUGUGAUAAUAUGGGAGGAUAUACGAAGACGAAAGUCGACGUAGAAGGCCUAAAGA [Garnet 48] — within 1.5-fold, 35.3 nM
- AAAUAAAGGACUGAGGAUAUACCACAUGAAACAUGAGGAUCACCCAUGUUGAAAAACAGAGGGUGGUAGAAGGUAGUCCACAAAC [Same State 2.5b ( so lets mod hyphema)] — 1.7-fold lower, 21.4 nM
- GAAGACAUAGUUCAGGAUAUAGGAAUAGUCACAUGAGGAUCACCCAUGUGCAUUUAUAUGCGCGCUUAGAAGGGAGGUAGAUAUA [SameState2 Malc#20] — 1.5-fold lower, 23.8 nM
- AAAUAAAAAAAAGAGGAUAUUCAUGUGAAAACAUGAGGAUCACCCAUGUAAAAAAAUAAAAAUAAAAAGAAGGAAAAAUAAAAAA [SS2: 83 No MS2] — 1.5-fold lower, 23.6 nM
- GACAGACAUGAGGAUCACCCAUGUACAAACGUACAAGGAUAUGUGUGGAAACCGUACUAUACAGAAGGUGUCUGUC [SS1 - 90] — 3.5-fold higher, 126 nM
- AGAAGACAUGAGGAUCACCCAUGUGGGAAUAUGGGAGGAUAUACAAAGACGAGAGUCAGAGUAGAAGGCCUAGGAC [salish99-ss1-94] — within 1.5-fold, 30.5 nM
- AGGAGACAUGAGGAUCACCCAUGUGAGAAGAGGCGAGGAUAUCGAAAGAAAGAAGAGAAACGAGAAGGCGCGAGGC [salish99-SS1-031] — within 1.5-fold, 27 nM
- AAAACACAUGAGGAUCACCCAUGUAAAAACAUGGGAGGAUAUGCAUGGAAAACAUGCUAUGCAGAAGGCUCAUGUG [SS1 - 6] — 2.4-fold lower, 14.9 nM
- AAACCACAUGAGGAUCACCCAUGUAAAAUAUACAUAGGAUAUGCGAAAAGAAACAAAGAAGCAGAAGGGUGAAAAA [75%, Ex sub1, 16] — within 1.5-fold, 36.4 nM
- AGCAUAGACAGAGAGGAUAUCCACGAGACAACAUGAGGAUCACCCAUGUGAUAGAGAAUACGAUGGGAGAAGGCUCGCGGUACGA [Topaz 50] — 2.6-fold lower, 13.9 nM
- AGCAUAGACAGAGAGGAUAUCCACGAGACAACAUGAGGAUCACCCAUGUGAAAGAGAAUACGAUGGGAGAAGGCUCGCGAUACGA [Topaz 49] — 2.7-fold lower, 13.4 nM
- AAAAAACAUGAGGAUCACCCAUGUAAAAAUAUGGAAGGAUAUGGAAACACGAAAGUGAAACCAGAAGGUCUAAAAG [77%, Mat - Mod of Eli, 10] — 2.1-fold lower, 17.1 nM
- AAAUUACAUGAGGAUCACCCAUGUUUAAAAAAUAUAGGAUAUGUAAAAAAAAAAAAAAAAACAGAAGGGUAAAAAA [I 'NO' this state well] — within 1.5-fold, 25.1 nM
- AGGAAACAUGAGGAUCACCCAUGUCUAAAUAUGGGAGGAUAUGCACAAAAGGAAAUAACUGCAGAAGGCCUAAAAA [62%, Redo, 4] — 2.1-fold lower, 17.3 nM
- AAGAAACAUGAGGAUCACCCAUGUAGAAAUAUGGGAGGAUAUACAAGGACGAGAGUCAAGGUAGAAGGCCUAAGAA [Mat - Same State 1 - Meechl mod - D134] — 2-fold lower, 17.6 nM
- GGGAAUAAAAGAGAGGAUAUCCAAAGGAAAACAUGAGGAUCACCCAUGUAAAAGGAAGGAAAUUGGGAGAAGGCUCAAGAUAGGG [salish99-ss2-012] — within 1.5-fold, 29.4 nM
- AUAUGACAUGAGGAUCACCCAUGUAUUCGAGCAUGAGGAUAUAUGACUAGUCAUAGGAGGAUAGAAGGCAUGGUUG [JR_SS001_Sub1217] — 2.1-fold higher, 76.2 nM
- GAGAAGAAGAGAGAGGAUAUCCAAAGGAAAACAUGAGGAUCACCCAUGUAAAAGGUAGGAAAUUGGGAGAAGGCUCAGAAGAGGG [salish99-ss2-030] — 1.5-fold lower, 23.2 nM
- AAAGAAAAACUAGAGGAUAUCCGAGUGGUAACAUGAGGAUCACCCAUGUGAAGAAAGGAACAUAUGGAGAAGGCUAGAAGAAAAA [JL Nando Mod 4] — 1.8-fold higher, 63.5 nM
- UAUCAUUACACGAAGGAUAUCGAAAAAAGAACAUGAGGAUCACCCAUGUGAAAUAAAAUACAGAACGAGAAGGUCGAGGGUGAAG [JR_SS002_Sub702] — 1.5-fold lower, 23.1 nM
- CUGGAACAUGAGGAUCACCCAUGUCACAGAAACUGAGGAUAUGGGCGCUAACAAGCAUGACCAGAAGGCAGACACG [Mamaes] — 2-fold lower, 18 nM
- AAGAAACAUGAGGAUCACCCAUGUGAUAAUAUGGGAGGAUAUACAAGGACGUAAGUCAAGGUAGAAGGCCUAAGAA [Mat - Same State 1 - Meechl mod - D140] — within 1.5-fold, 30.5 nM
- AAAAAACAUGAGGAUCACCCAUGUAAAAAAAACACAGGAUAUCCCUUUUAAAAAAAAAAAGGAGAAGGGUGAAAAA [Nob's Hobby 5 - Jieux - Same State 1] — 2.2-fold lower, 16.1 nM
- UUUCAUUACACGAAGGAUAUCGCUUUUCCGACAUGAGGAUCACCCAUGUAGUAGACCUCCCUGUUCGAGAAGGUCGCGGGUGAAC [JR_SS002_Sub604] — 5.4-fold higher, 192 nM
- AUAAGACAUGAGGAUCACCCAUGUAUUAGAGCAUGAGGAUAUAUGAAUAGUAAUAGGAGGAUAGAAGGCAUGGUUG [JR_SS001_Sub1218] — 2.6-fold higher, 92.6 nM
- AGAAAUAAAAGAGAGGAUAUUCAAAAAGGGACAUGAGGAUCACCCAUGUAAAAGAAAAUAAAAUGGGAGAAGGCUCAAAAUAAAG [80%, More Helter Skelter 2] — 2.4-fold higher, 85.5 nM
- AAACCACAUGAGGAUCACCCAUGUAGAAAUAUGGGAGGAUAUACGAAAACGAAAGUCAAAGUAGAAGGCCUAAAAG [saturn 2] — within 1.5-fold, 36.7 nM
- AAAAUACAUGAGGAUCACCCAUGUGAAAAUAUGGGAGGAUAUCAUGGAAAAAAAAAAACAUGAGAAGGCCCAAAAA [SS! 1 MT 10] — within 1.5-fold, 24.8 nM
- AAAGAAAAACUAGAGGAUAUCUGAAUGAUAACAUGAGGAUCACCCAUGUGAAGAAAGGAAUAUGAGGAGAAGGCUAGAAGAAAAA [JL Nando mod 19] — within 1.5-fold, 33.9 nM
- UAUCAUUACACGAAGGAUAUCGAAAAAAGAACAUGAGGAUCACCCAUGUAAAAUAAAACACAGAACGAGAAGGUCGAGGGUGAAG [JR_SS002_Sub701] — 2.3-fold lower, 15.8 nM
- GAAAAACAUGAGGAUCACCCAUGUGAGAUAAACACAGGAUAUGCGAAAAGAAACAAAUAAGCAGAAGGGUGAAAAG [Mat - Same State 1 - Tesla mod - 81] — within 1.5-fold, 44.1 nM
- UAAAAAAAAAGGCAGGAUAUCCAAAAUAAAACAUGAGGAUCACCCAUGUAAAAAAAAAAAAAAUGGGAGAAGGGCCAAAAAAAAU [Mat - Same State 2 - Mod - 159] — 2.6-fold lower, 14 nM
- GAAAAACAUGAGGAUCACCCAUGUGAAAAUAUGGGAGGAUAUACAAAGACGAAAGUCAAAGUAGAAGGCCUAAGAG [Garnet 34] — 1.6-fold lower, 22.1 nM
- AAAAGACAUGAGGAUCACCCAUGUCGAAAGACAUGAGGAUAUGUACAGACUUCGGUCUGUACAGAAGGCAUGAAAA [SS1 - 1067] — 2.1-fold lower, 17.1 nM
- AUAAAUAAUGGUAAGGAUAUCCAAAAGAAAACAUGAGGAUCACCCAUGUAAAAGAAAAUAGUGUGGGAGAAGGUACCAUAUAAAU [SS2 M 15] — 1.9-fold lower, 18.6 nM
- GAAAAACAUGAGGAUCACCCAUGUAGAAAUAUGGGAGGAUAUACUAAGACGAAAGUCGAAGUAGAAGGCCUAAAAG [Same State 1.4f (Mat - Mod of Eli - )] — 1.6-fold lower, 21.7 nM
- AAACCACAUGAGGAUCACCCAUGUCAAGAGAGACUAGGAUAUCUGAAUUAAUUAAAUUAAGGAGAAGGAGUGAAAA [71%, Same state of confusion2, 3] — within 1.5-fold, 52.8 nM
